The source of these data is patent publication US20190263918A1 (SHANGHAI JIAO TONG UNIVERSITY SCHOOL OF MEDICINE, published 2019).

This assay deals with T1, human FcγRIIA-R131 extracellular domain protein (human, UniProt P12318 34-217).
T1 construct: extracellular domain; SPR: His-tagged, immobilised; ELISA: biotinylated; also called hFcγRIIA-R131; CD32a
T1 sequence (looked up): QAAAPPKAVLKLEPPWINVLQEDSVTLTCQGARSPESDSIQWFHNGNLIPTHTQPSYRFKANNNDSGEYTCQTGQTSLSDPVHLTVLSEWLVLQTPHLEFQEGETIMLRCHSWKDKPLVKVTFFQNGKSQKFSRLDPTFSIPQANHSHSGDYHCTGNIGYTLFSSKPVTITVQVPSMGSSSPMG
Briefly: ELISA, coated antibody, biotinylated FcγR extracellular domain. As for the experimental part:
The ELISA plate was coated with 100 μL antibody at an appropriate concentration overnight, supernatant being discarded. The plate was blocked with 1% BSA in PBS for 2 hours, followed by washing with PBST (PBS with 0.05% Tween 20). Then, biotinylated FcγR extracellular domain protein (Sino Biologic Inc., Beijing China) at a concentration as appropriate was added and incubated at room temperature for 1 hour, supernatant being discarded, followed by PBST wash. Streptavidin-HRP (BD Biosciences) was added and incubated at room temperature for 1 hour for detection of biotin protein. After removal of supernatant, developing solution was added to react for 20-40 minutes, and absorbance was determined at 650 nm (A650).

B1: Anti-mCD40-hIgG2-NA (antibody)
heavy: EVQLVESDGGLVQPGRSLKLPCAASGFTFSDYYMAWVRQAPTKGLEWVASISYDGSSTYYRDSVKGRFTISRDNAKSTLYLQMDSLRSEDTATYYCGRHSSYFDYWGQGVMVTVSSASTKGPSVFPLAPCSRSTSESTAALGCLVKDYFPEPVTVSWNSGALTSGVHTFPAVLQSSGLYSLSSVVTVPSSNFGTQTYTCNVDHKPSNTKVDKTVERKCCVECPPCPAPPVAGPSVFLFPPKPKDTLMISRTPEVTCVVVDVSHEDPEVQFNWYVDGVEVHNAKTKPREEQFASTFRVVSVLTVVHQDWLNGKEYKCKVSNKGLPAPIEKTISKTKGQPREPQVYTLPPSREEMTKNQVSLTCLVKGFYPSDIAVEWESNGQPENNYKTTPPMLDSDGSFFLYSKLTVDKSRWQQGNVFSCSVMHEALHNHYTQKSLSLSPGK
light: DTVLTQSPALAVSPGERVTISCRASDSVSTLMHWYQQKPGQQPKLLIYLASHLESGVPARFSGSGSGTDFTLTIDPVEADDTATYYCQQSWNDPWTFGGGTKLELKRTVAAPSVFIFPPSDEQLKSGTASVVCLLNNFYPREAKVQWKVDNALQSGNSQESVTEQDSKDSTYSLSSTLTLSKADYEKHKVYACEVTHQGLSSPVTKSFNRGEC
notes: Chimeric anti-murine CD40 antibody, heavy chain constant region G2-NA (N297A)
Regarding B1, the binding result is reported as “no binding”.
